Holding throughout (assay): BLI
What all share (conditions): BLI: 20 mM Tris-HCl pH 7.4, 80 mM NaCl, temperature not stated; pull-down: 20 mM Tris-HCl pH 7.5, 300 mM KCl, 0.2 mM EDTA, 0.5 mM DTT, 5 ug/ml poly(I.C) …

Series [1] deals with T1, RBM45 RRM2-HOA (domain 2-HOA), Q8IUH3-3.
T1 sequence: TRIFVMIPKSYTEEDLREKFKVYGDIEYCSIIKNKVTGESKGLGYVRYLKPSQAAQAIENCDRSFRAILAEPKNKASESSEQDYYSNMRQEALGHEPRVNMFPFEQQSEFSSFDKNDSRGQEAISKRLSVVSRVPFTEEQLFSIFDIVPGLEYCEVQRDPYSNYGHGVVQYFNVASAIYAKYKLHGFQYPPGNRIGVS

Series [2] deals with T2, RBM45 aa 2-257 as printed, Q8IUH3-3.
T2 sequence: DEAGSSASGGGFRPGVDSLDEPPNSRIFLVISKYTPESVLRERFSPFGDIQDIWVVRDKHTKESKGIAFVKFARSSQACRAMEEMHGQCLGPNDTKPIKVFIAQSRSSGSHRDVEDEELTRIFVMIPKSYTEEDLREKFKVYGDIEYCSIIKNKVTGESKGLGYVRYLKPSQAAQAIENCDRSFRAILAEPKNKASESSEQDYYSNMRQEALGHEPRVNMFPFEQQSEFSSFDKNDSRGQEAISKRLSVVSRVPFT

Series [3] relates to T3, RBM45 domain 2-3, Q8IUH3-3.
T3 sequence: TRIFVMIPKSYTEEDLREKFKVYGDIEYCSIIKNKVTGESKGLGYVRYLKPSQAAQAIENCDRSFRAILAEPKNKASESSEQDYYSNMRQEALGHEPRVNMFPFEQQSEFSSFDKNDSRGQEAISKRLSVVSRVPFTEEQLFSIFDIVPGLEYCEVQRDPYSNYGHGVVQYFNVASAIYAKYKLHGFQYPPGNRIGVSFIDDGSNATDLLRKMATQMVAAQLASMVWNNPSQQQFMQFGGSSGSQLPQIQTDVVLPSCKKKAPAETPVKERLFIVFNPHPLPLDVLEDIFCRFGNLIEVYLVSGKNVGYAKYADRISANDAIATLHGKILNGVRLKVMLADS

For GUAAAGCUACGGGACGGU [ISE3], the Kd in series [1] is 0.0213 µM; in series [2], 0.043 µM; in series [3], 0.0218 µM.

The values are drawn from paper PMC7064759.
